Results from article PMC12148588 (2025).
Numbering of substitutions follows the chain as printed. Where two headings read alike, the source gives them in different places.

Assays:
[1] = biological target: T1, SARS-CoV-2 RBD of the Wuhan strain (Acro Biosystems SPD-C82E9-25) (SARS-CoV-2, UniProt P0DTC2); experiment: SPR
[2] = biological target: T1, SARS-CoV-2 RBD of the Wuhan strain …; experiment: SPR; remark: listed apart in the source

B1: MB043_CL39 (antibody, V domains shown)
VH: EVQLVETGGGLIHPGGSLRLSCAASEFIVSYNYMSWVRQAPGKGLEWVSVIYSGGSTFYADAVKGRFTISRDSSKNTLDLLMNSLRVEDTAVYYCARVLPSNTDYFDYWGQGILVTVSS
VL: QSVLTQPPSVSGATGQRVTISCTGSNSNIGAGSDVHWYQQLPGAAPKLLIYVNNNRPSGVPDRFSGSKSGTSASLAITGLQAEDEADYYCQSYDSSLSGYVFGTGTKVTVL
Kd [1]: 27.3 pM

B2: MB027_D06L (antibody, V domains shown)
VH: B1 VH with H13Q, E26G, Y31S, V50I, S73N, L81Q, V87A, S101T, N102S
VL: B1 VL with T14P, Q40H, A44T, K47T, V52S, N54S, G99T
Kd [1]: 7170 pM

B3: MB025_A09L (antibody, V domains shown)
VH: EVQLVESGGGLVQPGGSLRLSCAASGFSVSIFYMNWVRQAPGKGLEWVSSVYSGETTYYADSVRGRFTISRDNSKSTLYLQMNSLRPEDTAVYYCARGVDYRTNRTEGGAFDIWGQGTMVTVSS
VL: QSALTQPASVSGSPGQSIPISCTGTSSDFGNYNLISWYQQHPGKAPKLMIYEGTKRPSGVSDRFSGSKSANTASLTISGLQAEDEADYYCCSYAGSSTWMFGGGTKLTVL
Kd [2]: 4.91 pM

B4: MB025_A07K (antibody, V domains shown)
VH: EVQLVESGGDLVQPGGSLRLSCAASEFIVSSNYMSWVRQTPGKGLEWISVLYSGGSTFYADSVKGRFTISRDNSKNTLYLQMNSLRVEDTAVYYCARDFGEFWFDYWGQGTLVTVSS
VL: EIVLTQSPGTLSLSPGERATLSCRASQTINSYLAWYQQKPGQAPRLLIYGASSRATGIPDRFSGSGSGTDFTLTISRLEPEDFAVYYCQQYGNSPRTFGQGTKVEIK
Kd [2]: 159 pM
